From patent publication US20220110851A1

Columns and labels:
[1] = target: acetylcholine receptor on AchR-overexpressed TE671 cells; assay: cell-based or functional assay
[2] = target: acetylcholine receptor protein; assay: SPR, AchR on CM5 chip, positive control

With Synake (peptide) the IC50 value for AchR (AchR inhibitory effect in TE671 cells) [1] was 75 µM and the Kd [2] was 2300 µM.

Work on bungarotoxin yielded an IC50 value for AchR (AchR inhibitory effect in TE671 cells) [1] of 0.0075 µM.
